Reference: patent publication US20080058636A1, “METHODS OF MYOCARDIAL IMAGING” (Epix Pharmaceuticals, Inc., priority 2005, published 2008)
Bridge positions count the residues as written; N and C are the ends. Square brackets hold non-standard residues; d marks the D form. Ends that are not written are not given here.

Legend:
[1] = biological target: human collagen type I (acid soluble, extracted from placenta, Sigma C7774) (human) (UniProt P02452); assay: dried collagen assay
[2] = biological target: rat collagen (acid soluble, type I, rat tail, Upstate 08-115) (rat) (UniProt P02454); assay: dried collagen assay
rat collagen (acid soluble, type I, rat tail, Upstate 08-115) (rat), sequence (P02454 152-1207, chain 1 of 2): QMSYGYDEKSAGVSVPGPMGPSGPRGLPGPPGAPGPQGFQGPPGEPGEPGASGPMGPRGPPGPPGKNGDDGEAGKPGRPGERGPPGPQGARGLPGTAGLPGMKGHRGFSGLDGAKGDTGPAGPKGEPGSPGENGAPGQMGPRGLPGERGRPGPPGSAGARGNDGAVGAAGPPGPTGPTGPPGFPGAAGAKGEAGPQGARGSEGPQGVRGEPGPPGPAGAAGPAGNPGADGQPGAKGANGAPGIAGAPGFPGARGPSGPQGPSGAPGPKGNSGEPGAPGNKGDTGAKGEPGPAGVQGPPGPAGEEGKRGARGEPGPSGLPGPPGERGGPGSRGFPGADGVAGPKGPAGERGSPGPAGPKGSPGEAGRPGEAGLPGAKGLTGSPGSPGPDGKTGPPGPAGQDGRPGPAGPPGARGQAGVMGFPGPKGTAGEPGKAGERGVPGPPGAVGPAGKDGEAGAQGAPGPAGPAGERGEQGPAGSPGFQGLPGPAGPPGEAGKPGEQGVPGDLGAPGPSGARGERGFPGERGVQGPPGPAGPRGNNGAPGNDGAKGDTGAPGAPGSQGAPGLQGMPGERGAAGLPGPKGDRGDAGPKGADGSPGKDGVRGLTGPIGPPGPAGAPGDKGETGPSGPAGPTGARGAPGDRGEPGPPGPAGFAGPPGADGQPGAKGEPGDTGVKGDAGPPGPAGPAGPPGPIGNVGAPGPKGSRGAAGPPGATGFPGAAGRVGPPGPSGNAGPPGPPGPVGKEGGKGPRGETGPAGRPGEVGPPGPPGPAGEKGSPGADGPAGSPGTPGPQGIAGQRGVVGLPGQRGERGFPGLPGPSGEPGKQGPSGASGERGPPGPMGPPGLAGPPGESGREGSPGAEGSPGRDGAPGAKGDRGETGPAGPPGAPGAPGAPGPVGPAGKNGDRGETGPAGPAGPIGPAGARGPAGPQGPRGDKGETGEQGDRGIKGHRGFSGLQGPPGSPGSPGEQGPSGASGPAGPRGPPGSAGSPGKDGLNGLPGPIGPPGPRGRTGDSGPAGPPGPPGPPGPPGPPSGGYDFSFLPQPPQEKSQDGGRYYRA
rat collagen (acid soluble, type I, rat tail, Upstate 08-115) (rat), sequence (P02466 86-1125, chain 2 of 2, further chain): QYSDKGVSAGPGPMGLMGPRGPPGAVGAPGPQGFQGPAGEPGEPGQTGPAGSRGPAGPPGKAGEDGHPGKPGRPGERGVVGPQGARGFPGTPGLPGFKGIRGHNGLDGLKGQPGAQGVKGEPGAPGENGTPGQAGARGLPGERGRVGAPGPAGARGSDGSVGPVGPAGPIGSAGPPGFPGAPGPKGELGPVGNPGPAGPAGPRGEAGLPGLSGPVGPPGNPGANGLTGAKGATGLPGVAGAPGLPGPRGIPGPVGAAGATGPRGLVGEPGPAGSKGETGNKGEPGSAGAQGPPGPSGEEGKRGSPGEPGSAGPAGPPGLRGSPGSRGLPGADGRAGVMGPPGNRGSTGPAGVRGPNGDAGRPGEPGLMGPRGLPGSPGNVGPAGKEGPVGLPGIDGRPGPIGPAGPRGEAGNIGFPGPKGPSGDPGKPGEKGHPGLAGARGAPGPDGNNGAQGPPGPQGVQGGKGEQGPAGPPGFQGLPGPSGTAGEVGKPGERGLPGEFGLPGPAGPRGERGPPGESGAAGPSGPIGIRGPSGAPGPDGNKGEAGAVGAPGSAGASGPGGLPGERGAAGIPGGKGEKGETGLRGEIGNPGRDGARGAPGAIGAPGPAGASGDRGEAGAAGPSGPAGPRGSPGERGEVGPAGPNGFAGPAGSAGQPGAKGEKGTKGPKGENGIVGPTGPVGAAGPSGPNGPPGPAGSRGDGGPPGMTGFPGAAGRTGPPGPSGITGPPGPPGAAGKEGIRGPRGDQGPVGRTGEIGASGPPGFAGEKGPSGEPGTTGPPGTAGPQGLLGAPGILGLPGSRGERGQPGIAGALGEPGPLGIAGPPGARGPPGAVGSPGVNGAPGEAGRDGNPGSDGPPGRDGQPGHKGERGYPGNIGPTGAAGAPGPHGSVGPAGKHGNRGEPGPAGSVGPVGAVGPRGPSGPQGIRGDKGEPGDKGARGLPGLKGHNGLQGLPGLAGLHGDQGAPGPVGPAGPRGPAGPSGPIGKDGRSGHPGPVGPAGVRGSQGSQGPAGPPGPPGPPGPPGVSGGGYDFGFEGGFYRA

human collagen type I (acid soluble, extracted from placenta, Sigma C7774) (human), sequence (P02452 162-1218 limits assumed, chain 1 of 2): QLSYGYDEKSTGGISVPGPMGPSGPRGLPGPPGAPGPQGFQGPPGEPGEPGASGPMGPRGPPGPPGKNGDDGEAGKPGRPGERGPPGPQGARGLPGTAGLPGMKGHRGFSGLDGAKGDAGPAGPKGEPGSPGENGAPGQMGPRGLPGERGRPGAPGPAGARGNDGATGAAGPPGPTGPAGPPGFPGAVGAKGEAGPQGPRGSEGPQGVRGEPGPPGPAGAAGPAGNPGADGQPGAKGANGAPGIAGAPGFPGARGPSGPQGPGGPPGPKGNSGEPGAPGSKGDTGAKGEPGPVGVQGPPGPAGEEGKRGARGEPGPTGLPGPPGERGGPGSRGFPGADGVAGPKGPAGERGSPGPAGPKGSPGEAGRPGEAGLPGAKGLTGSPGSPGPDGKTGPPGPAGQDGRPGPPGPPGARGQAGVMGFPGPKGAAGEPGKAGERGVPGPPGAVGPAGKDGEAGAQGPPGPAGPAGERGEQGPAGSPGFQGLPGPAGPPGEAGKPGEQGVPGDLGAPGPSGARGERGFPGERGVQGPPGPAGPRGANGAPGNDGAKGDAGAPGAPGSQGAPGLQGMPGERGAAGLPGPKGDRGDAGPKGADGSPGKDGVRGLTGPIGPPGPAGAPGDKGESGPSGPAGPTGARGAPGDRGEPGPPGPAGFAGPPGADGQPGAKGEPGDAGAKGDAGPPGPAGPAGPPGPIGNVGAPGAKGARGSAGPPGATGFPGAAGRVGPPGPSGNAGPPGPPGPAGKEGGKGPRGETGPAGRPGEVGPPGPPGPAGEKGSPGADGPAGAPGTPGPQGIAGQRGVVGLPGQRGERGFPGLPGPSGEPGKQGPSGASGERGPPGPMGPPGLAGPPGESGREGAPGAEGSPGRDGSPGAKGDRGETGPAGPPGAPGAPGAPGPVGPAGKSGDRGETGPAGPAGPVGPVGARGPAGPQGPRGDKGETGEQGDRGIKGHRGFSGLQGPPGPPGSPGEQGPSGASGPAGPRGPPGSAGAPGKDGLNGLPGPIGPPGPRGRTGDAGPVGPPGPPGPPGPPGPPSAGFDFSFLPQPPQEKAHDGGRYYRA
human collagen type I (acid soluble, extracted from placenta, Sigma C7774) (human), sequence (P08123 80-1119 limits assumed, chain 2 of 2, further chain): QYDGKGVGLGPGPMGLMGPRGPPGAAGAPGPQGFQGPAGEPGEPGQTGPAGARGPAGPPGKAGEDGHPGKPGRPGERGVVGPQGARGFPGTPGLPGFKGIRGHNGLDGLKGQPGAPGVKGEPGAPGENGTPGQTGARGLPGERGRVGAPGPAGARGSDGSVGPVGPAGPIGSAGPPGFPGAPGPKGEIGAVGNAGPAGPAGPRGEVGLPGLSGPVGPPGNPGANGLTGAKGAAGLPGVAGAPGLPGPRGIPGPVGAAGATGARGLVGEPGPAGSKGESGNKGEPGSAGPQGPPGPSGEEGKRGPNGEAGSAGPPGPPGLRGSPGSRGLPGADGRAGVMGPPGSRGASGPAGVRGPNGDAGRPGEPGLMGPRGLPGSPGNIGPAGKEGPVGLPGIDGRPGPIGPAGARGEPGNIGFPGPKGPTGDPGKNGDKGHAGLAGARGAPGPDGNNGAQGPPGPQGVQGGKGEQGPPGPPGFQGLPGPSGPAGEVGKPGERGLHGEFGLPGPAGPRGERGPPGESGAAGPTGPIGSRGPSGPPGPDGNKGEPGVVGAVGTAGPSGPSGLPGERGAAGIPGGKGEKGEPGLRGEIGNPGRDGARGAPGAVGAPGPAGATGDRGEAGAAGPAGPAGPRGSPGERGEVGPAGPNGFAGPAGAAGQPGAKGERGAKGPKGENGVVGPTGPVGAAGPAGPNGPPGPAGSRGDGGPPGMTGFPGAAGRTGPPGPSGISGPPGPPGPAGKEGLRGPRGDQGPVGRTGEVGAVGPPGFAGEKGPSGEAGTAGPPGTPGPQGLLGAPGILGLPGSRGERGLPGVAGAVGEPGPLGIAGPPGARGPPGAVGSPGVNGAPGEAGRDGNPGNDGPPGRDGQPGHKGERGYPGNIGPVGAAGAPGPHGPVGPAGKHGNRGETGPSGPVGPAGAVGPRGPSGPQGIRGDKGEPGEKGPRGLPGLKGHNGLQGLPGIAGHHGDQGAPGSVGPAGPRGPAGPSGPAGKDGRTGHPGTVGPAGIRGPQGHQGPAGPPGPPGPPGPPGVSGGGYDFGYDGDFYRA

Dried Human Collagen Binding [1] [%]	% Collagen Binding [1] [%]	% Collagen Binding [2] [%]	Binder
6			RWSCVLDADGWVCSDN (disulfide 4-13 (inferred); also: C-terminus likely amidated (Rink amide resin)) [SEQ ID NO: 66]
	46	31	G[dQ]WTCSGDEYTWHCNYE (disulfide 5-14 (inferred)) [SEQ ID NO: 164]
3			QWFCEMDEYGKWNCGMM (disulfide 4-14; not fully specified (C-terminus)) [SEQ ID NO: 81]
	68	73	GQWTCSGDEYAWHCNY[dE] (disulfide 5-14 (inferred)) [SEQ ID NO: 126]
	38	28	DWTCSGDEYAWHCNYE [SEQ ID NO: 120]
	2	2	GQWTCSGDEYTWHC[dN]YE (disulfide 5-14 (inferred); not fully specified (C-terminus); printed as Q W T C S G D E Y T W H C n Y E) [SEQ ID NO: 176]
5			SWHCFLENHHWMCSDH (disulfide 4-13 (inferred); also: C-terminus likely amidated (Rink amide resin)) [SEQ ID NO: 68]
	24	17	GQWTCSGDEY[dA]WHCNA[dE] (disulfide 5-14 (inferred)) [SEQ ID NO: 124]
	81	72	DWTCSSDEYTWHCNYE [SEQ ID NO: 180]
8			FWTCELDFRQSWYCYDK (disulfide 4-14 (inferred); not fully specified) [SEQ ID NO: 79]
	2	4	GQ[dW]TCSGDEYTWHCNYE (disulfide 5-14 (inferred)) [SEQ ID NO: 165]
		7	YHACYQAGCWAW (disulfide 4-9; not fully specified) [SEQ ID NO: 137]
	13	6	GQWTCSGDE[dY]TWHCNYE (disulfide 5-14 (inferred); not fully specified (C-terminus); printed as Q W T C S G D E y T W H C N Y E) [SEQ ID NO: 171]
		6	GQWTCSADEYTWHCNYE (disulfide 5-14; not fully specified) [SEQ ID NO: 142]
2			PWWCHEMPSMCFGF (disulfide 4-11; also: C-terminus probably amidated (Rink amide resin)) [SEQ ID NO: 3]

More lines, now with the values behind:

Binder	Dried Human Collagen Binding [1] [%]	% Collagen Binding [1] [%]	% Collagen Binding [2] [%]
NWYCSQALDNWSCKLR (disulfide 4-13; also: C-terminus likely amidated (Rink amide resin)) [SEQ ID NO: 63]	8		
GQWTCSG[dD]EYTWHCNYE (disulfide 5-14 (inferred)) [SEQ ID NO: 169]		11	4
DWTCSYDEYTWHCNYE [SEQ ID NO: 182]		89	86
LWTCSMDRNYDWVCGEK (disulfide 4-14; not fully specified (C-terminus)) [SEQ ID NO: 82]	3		
GQWTCSGDEYTWHCNY[dE] (disulfide 5-14 (inferred); not fully specified (C-terminus); printed as Q W T C S G D E Y T W H C N Y e) [SEQ ID NO: 178]		90	87
TWACDLDEYGGWQCYTG (disulfide 4-14 (inferred); also: C-terminal amide likely (Rink amide resin)) [SEQ ID NO: 78]	8		
GWACNTTSKGDWECTNL (disulfide 4-14; not fully specified (C-terminus)) [SEQ ID NO: 83]	3		
TWICSHNDKGWTCGDQ (disulfide 4-13 (inferred); also: C-terminus likely amidated (Rink amide resin)) [SEQ ID NO: 64]	8		
GQWTCSGDEYTWH[dC]NYE (disulfide 5-14 (inferred); not fully specified (C-terminus); printed as Q W T C S G D E Y T W H c N Y E) [SEQ ID NO: 175]		2	2
GQWTCSGDEYT[dW]HCNYE (disulfide 5-14 (inferred); not fully specified (C-terminus); printed as Q W T C S G D E Y T w H C N Y E) [SEQ ID NO: 173]		5	4
PWTCSGDEYAWHCNYE [SEQ ID NO: 121]		57	72
GQW[dT]CSGDEYTWHCNYE (disulfide 5-14 (inferred)) [SEQ ID NO: 166]		2	3
GQWTC[dS]GDEYTWHCNYE (disulfide 5-14 (inferred)) [SEQ ID NO: 168]		3	2
TWMCVDPPLWRCWVQ (disulfide 4-12; also: C-terminus probably amidated (Rink amide resin)) [SEQ ID NO: 4]	45		
GWSCHSMDMQWHCDFS (disulfide 4-13 (inferred); also: C-terminus likely amidated (Rink amide resin)) [SEQ ID NO: 67]	5		
GQWTCSGDEYTW[dH]CNYE (disulfide 5-14 (inferred); not fully specified (C-terminus); printed as Q W T C S G D E Y T W h C N Y E) [SEQ ID NO: 174]		5	0
GQWTCSGDEYTWHCN[dY]E (disulfide 5-14 (inferred); not fully specified (C-terminus); printed as Q W T C S G D E Y T W H C N y E) [SEQ ID NO: 177]		30	27
GQWTCSGD[dE]YTWHCNYE (disulfide 5-14 (inferred)) [SEQ ID NO: 170]		49	35
DWTCSRDEYTWHCNYE [SEQ ID NO: 181]		87	86
HWSCDLAMDNEWFCSTK (disulfide 4-14; not fully specified (C-terminus)) [SEQ ID NO: 84]	3		
GQWT[dC]SGDEYTWHCNYE (disulfide 5-14 (inferred)) [SEQ ID NO: 167]		4	0
GQWTCSGDEYSWHCNY[dE] (disulfide 5-14 (inferred)) [SEQ ID NO: 125]		85	86
KWECVHTKGEWYCETK (disulfide 4-13 (inferred); also: C-terminus likely amidated (Rink amide resin)) [SEQ ID NO: 65]	7		
DWTCSADEYTWHCNYE [SEQ ID NO: 179]		81	75
GQWTCSGDEY[dT]WHCNYE (disulfide 5-14 (inferred); not fully specified (C-terminus); printed as Q W T C S G D E Y t W H C N Y E) [SEQ ID NO: 172]		9	8
GWTCSQPGANVWNCTMQ (disulfide 4-14; not fully specified (C-terminus)) [SEQ ID NO: 85]	3		
YHACYQAGCWIW (disulfide 4-9; not fully specified (C-terminus)) [SEQ ID NO: 1]	56		
